Experimental data as given in patent publication US20170029474A1 (OSAKA UNIVERSITY, published 2017).
Read-outs that look alike come from different tables or passages of the source.

Key:
CRM197 [1] = biological target: T1, CRM197 (Corynebacterium diphtheriae, UniProt P00587 26-560); test: SPR, Biacore T200, His-tagged HB-EGF captured on NTA chip
CRM197 [2] = biological target: T1, CRM197; test: as above; remark: listed apart in the source

B1: C-terminal His-tagged HB-EGF lacking the heparin-binding domain (ligand)
chain: DLQEADLDLLRVTLSSKPQALATPNKEEHGDPCLRKYKDFCIHGECKYVKELRAPSCICHPGYHGERCHGLSLP
notes: Captured on a Ni2+ NTA sensor chip for Biacore; also called C-terminal His-tagged recombinant HB-EGF; Δ••-EGF-His
Binder B1 has a Ka (CRM197 [1]) of 9.22e+08 M⁻¹ and a Ka (CRM197 [2]) of 9.8e+08 M⁻¹.
